From patent publication US20240182909, “Checkpoint Aptamers as Therapeutics for Cancer Treatment” (Ayass Bioscience LLC, published 2024)

Tests used:
Conditions in all cases: label: biotin
[1] = biological target: Bovine serum albumin (BSA) (Bos taurus, UniProt P02769 P02769:25-607); experiment: ELONA; BSA-coated plate
PD-1 [2] = biological target: T1, PD-1 (UniProt Q15116 Q15116:25-170); experiment: competition; PD-1 as soluble competitor for aptamer binding to immobilised CTLA4
Procedure: (§1) FIGS. 3A, 3B, and 3C show the assessment of competitive specificity of CTLA4 aptamers, R2-13, R2-25, R2-63, R2-81, R3-20, and R3-56 to CTLA4 protein in presence of CTLA4, NKG2A, and PD-1 proteins. ELISA-based competition assay for the specificity of the binding of CTLA4 aptamers, R2-13, R2-25, R2-63, R2-81, R3-20, and R3-56. CTLA4 protein (5.0 ug/mL) was immobilized on a MaxiSorp plate. Biotinylated CTLA4 aptamers on 5.0 uM concentration were added in the presence of different concentrations of CTLA4, PD-1, or NKG2A proteins, respectively. The bound aptamer was detected using Streptavidin-HRP and assessed by ELISA. The absorbance of each well was monitored at 450 nm on an automatic microplate reader. The percent inhibition was calculated using the formula, Percent inhibition=[1−(Ainhibitor/Auninhibitor)]×100.

[3] = biological target: T2, CTLA4 (cytotoxic T-lymphocyte associated protein 4) (UniProt P16410 P16410:36-161); experiment: ELONA; direct and competitive ELISA; 100-fold excess unlabelled aptamer as competitor
T2 sequence (P16410 36-161, one chain of several): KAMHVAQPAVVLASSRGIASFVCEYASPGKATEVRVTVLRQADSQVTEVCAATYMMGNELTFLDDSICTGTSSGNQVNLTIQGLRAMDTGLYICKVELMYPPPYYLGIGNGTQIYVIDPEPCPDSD

NKG2A [4] = biological target: T3, NKG2A (UniProt P26715 P26715:94-233); experiment: as above
T3 sequence (P26715 94-233, one chain of several): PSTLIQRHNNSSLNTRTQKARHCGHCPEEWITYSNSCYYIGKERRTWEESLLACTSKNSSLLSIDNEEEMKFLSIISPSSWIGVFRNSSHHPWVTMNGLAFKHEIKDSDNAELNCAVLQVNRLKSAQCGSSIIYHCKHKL
Procedure: FIGS. 2A and 2B show aptamer, R2-13, specific binding to CTLA4 and NKG2A is determined by Direct and Competitive ELISA assay. ELISA-based competition assay for the binding of the CTLA4 aptamer, R2-13, to CTLA4 protein and to NKG2A protein. CTLA4 protein and NKG2A protein were immobilized on a MaxiSorp plate and biotinylated R2-13 on different concentrations were added in the absence and presence of 100-fold excess of non-biotinylated respective R2-13. The bound aptamer was detected using Streptavidin-HRP and assessed by ELISA. CTLA4 protein was immobilized on a MaxiSorp plate and biotinylated R2-13 on different concentrations were added in the absence and presence of 100-fold excess of non-biotinylated respective R2-13. The bound aptamer was assessed by ELISA.

PD-1 [5] = biological target: T1, PD-1; experiment: competition; PD-1 as soluble competitor; called R2-25 in figure legend
Procedure: as §1

NKG2A [6] = biological target: T3, NKG2A; experiment: competition; NKG2A as soluble competitor for aptamer binding to immobilised CTLA4
Procedure: as §1

[7] = biological target: T2, CTLA4 (cytotoxic T-lymphocyte …); experiment: ELONA; called R2-25 in figure legend; 5.0 uM biotinylated aptamer on immobilised CTLA4, competed with soluble protein
Procedure: as §1

PD-1 [8] = biological target: T1, PD-1; experiment: competition; PD-1 as soluble competitor
Procedure: as §1

[9] = biological target: T2, CTLA4 (cytotoxic T-lymphocyte …); experiment: ELONA; 5.0 uM biotinylated aptamer on immobilised CTLA4 (5.0 ug/mL), competed with soluble protein
Procedure: as §1

T1 sequence (Q15116 25-170, one chain of several): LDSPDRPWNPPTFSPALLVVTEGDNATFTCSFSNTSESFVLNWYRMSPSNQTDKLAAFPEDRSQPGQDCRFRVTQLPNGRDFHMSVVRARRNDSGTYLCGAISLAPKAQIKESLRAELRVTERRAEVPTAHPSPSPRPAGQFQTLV
Chain of Bovine serum albumin (BSA) (P02769 25-607, one chain of several): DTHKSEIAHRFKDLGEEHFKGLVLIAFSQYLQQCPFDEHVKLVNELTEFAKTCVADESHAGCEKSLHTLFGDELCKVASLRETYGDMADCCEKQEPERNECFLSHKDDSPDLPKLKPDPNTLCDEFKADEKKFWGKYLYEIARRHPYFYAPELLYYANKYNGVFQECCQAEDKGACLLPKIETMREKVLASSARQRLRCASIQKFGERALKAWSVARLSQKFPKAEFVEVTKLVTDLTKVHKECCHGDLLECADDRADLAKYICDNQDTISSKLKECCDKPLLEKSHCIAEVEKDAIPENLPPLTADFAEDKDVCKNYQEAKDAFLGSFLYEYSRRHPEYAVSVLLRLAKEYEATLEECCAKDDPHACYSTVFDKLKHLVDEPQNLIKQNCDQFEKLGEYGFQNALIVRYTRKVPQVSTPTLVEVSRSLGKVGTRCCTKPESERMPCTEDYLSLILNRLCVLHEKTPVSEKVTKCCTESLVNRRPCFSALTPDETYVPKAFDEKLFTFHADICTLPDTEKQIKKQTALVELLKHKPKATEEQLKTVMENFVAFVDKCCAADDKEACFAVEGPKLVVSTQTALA

ACACTTTTCCCCCACCTGATCCTCAGTTCCGGAAAAGTGT (ssDNA, deoxyuridine (dU) in place of every T) [ctla4_R2_13]: no binding [1]; no binding (PD-1 [2]); binds [3]. ACACTTTTCCCCCACCTGATCCTCAGTTCCGGAAAAGTGT (ssDNA, deoxyuridine (dU) in place of every T) [ctla4_R2_13]: binds (NKG2A [4]).

GACTTCGCGGAGGTAAACTGCACGGGGGTGCCGCGAAGTC (ssDNA, deoxyuridine (dU) in place of every T) [ctla4_R3_25]: no binding (PD-1 [5]); binds (NKG2A [6]); binds [7].

ACTTACAACTGCGCACGCGGGACCTCCGAGAGTTGTAAGT (ssDNA, deoxyuridine (dU) in place of every T) [ctla4_R2_81]: no binding (PD-1 [8]); binds [9]; binds (NKG2A [6]).

TTGTTGCAGGCGACGTGCGTGGGCGCACGGCCTGCAACAA (ssDNA, deoxyuridine (dU) in place of every T) [ctla4_R3_56]: no binding (PD-1 [8]); binds [9]; binds (NKG2A [6]).

GACCTGCCGGCGGAGCTGCGTCCCGCTGCACCGGCAGGTC (ssDNA, deoxyuridine (dU) in place of every T) [ctla4_R3_20]: no binding (PD-1 [8]); binds [9]; binds (NKG2A [6]).
